In US11278600B2, “Human alpha-galactosidase variants” (Codexis, Inc., priority 2014, dated 2022):
Changes are numbered by the printed parent chain.

Columns and labels:
Type in all cases: biochemical
[1] = HTP-analysis of supernatants pretreated with acid (MUGal hydrolysis); details: activity of the variant/activity of Rd4BB (SEQ ID NO: 15); challenge at pH 3.7
Outline: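 Fluorescence of MUGal hydrolysis (Ex. 355 nm, Em. 448 nm) is read after sodium carbonate quench. The enzyme source is INVSc1 yeast culture supernatant, first exposed to pH 3.3-4.3 McIlvaine buffer at 37° C. for 1-3 h, then reacted at pH 4.8 for 30-180 minutes.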

[2] = HTP-analysis of yeast culture supernatants, no challenge (MUGal hydrolysis); details: activity of the variant/activity of Rd4BB (SEQ ID NO: 15)
Outline: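 GLA variants expressed in yeast INVSc1, secreted into SD-Ura broth over 66-84 h at 30° C; clarified supernatants tested without challenge. Supernatant mixed with McIlvaine buffer pH 4.8 and 2 mM MUGal (citrate/KCl, pH 4.6), 37° C for 30-180 min, carbonate-quenched, fluorescence Ex 355/Em 448 nm.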

[3] = HTP-analysis of supernatants pretreated with base (MUGal hydrolysis); details: activity of the variant/activity of Rd4BB (SEQ ID NO: 15); challenge at pH 9.65
Outline: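 GLA variants secreted from yeast INVSc1; culture supernatants pre-incubated with McIlvaine buffer pH 7.0–8.2 or 200 mM bicarbonate pH 9.1–9.7 at 37° C. for 1–18 h. Residual activity: MUGal (4 mM stock) hydrolysis at pH 4.3–4.8, 37° C., 30–180 min, carbonate quench; fluorescence Ex 355/Em 448 nm.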

B1: 374 (protein)
chain: LDNGLARTPTMGWLHWERFMCNLDCQEEPDSCISEKLFMEMAEMMVSEGWKDAGYEYLCIDDCWMAPQRDSEGRLQADPQRFPHGIRQLANYVHSKGLKLGIYADVGNKTCAGFPGSFGYYDIDAQTFADWGVDLLKFDGCYCDSLENLADGYKHMSLALNRTGRSIVYSCEWPLYMWPFQKPNYTEIRQYCNHWRNFADIDDSWKSIKSILDWTSRNQERIVDVAGPGGWNDPDMLVIGNFGLSWDQQVTQMALWAIMAAPLFMSNDLRHISPQAKALLQDKDVIAINQDPLGKQGYQLRKGDNFEVWERPLSGDAWAVAIINRQEIGGPRSYTIPVASLGKGVACNPACFITQLLPVKRQLGFYNWTSRLKSHINPTGTVLLQLENTMQMSLKDLL
modifications: Synthetic Polypeptide sequence of Variant No. 374 of mature Human GLA
Relative Activity of GLA Variants After Challenge at pH 3.7 [1]: + (0.5 to 1.5 relative activity over Rd4BB (SEQ ID NO: 15))
Relative Activity of GLA Variants After No Challenge (NC) [2]: + (0.5 to 1.5 relative activity over Rd4BB (SEQ ID NO: 15))
Relative Activity of GLA Variants After Challenge at pH 9.65 [3]: + (0.5 to 1.5 relative activity over Rd4BB (SEQ ID NO: 15))

B2: 383 (protein)
chain: B1 chain with M44R, Y92C
modifications: Synthetic Polypeptide sequence of Variant No. 383 of mature Human GLA
Relative Activity of GLA Variants After Challenge at pH 3.7 [1]: − (<0.5 relative activity over Rd4BB (SEQ ID NO: 15))
Relative Activity of GLA Variants After No Challenge (NC) [2]: + (0.5 to 1.5 relative activity over Rd4BB (SEQ ID NO: 15))
Relative Activity of GLA Variants After Challenge at pH 9.65 [3]: − (<0.5 relative activity over Rd4BB (SEQ ID NO: 15))

B3: 386 (protein)
chain: B1 chain with M44R, H94R
modifications: Synthetic Polypeptide sequence of Variant No. 386 of mature Human GLA
Relative Activity of GLA Variants After Challenge at pH 3.7 [1]: + (0.5 to 1.5 relative activity over Rd4BB (SEQ ID NO: 15))
Relative Activity of GLA Variants After No Challenge (NC) [2]: − (<0.5 relative activity over Rd4BB (SEQ ID NO: 15))
Relative Activity of GLA Variants After Challenge at pH 9.65 [3]: − (<0.5 relative activity over Rd4BB (SEQ ID NO: 15))

B4: 382 (protein)
chain: B1 chain with M44R, H94N
modifications: Synthetic Polypeptide sequence of Variant No. 382 of mature Human GLA
Relative Activity of GLA Variants After Challenge at pH 3.7 [1]: − (<0.5 relative activity over Rd4BB (SEQ ID NO: 15))
Relative Activity of GLA Variants After No Challenge (NC) [2]: − (<0.5 relative activity over Rd4BB (SEQ ID NO: 15))
Relative Activity of GLA Variants After Challenge at pH 9.65 [3]: − (<0.5 relative activity over Rd4BB (SEQ ID NO: 15))

B5: 378 (protein)
chain: B1 chain with M44T
modifications: Synthetic Polypeptide sequence of Variant No. 378 of mature Human GLA
Relative Activity of GLA Variants After Challenge at pH 3.7 [1]: − (<0.5 relative activity over Rd4BB (SEQ ID NO: 15))
Relative Activity of GLA Variants After No Challenge (NC) [2]: + (0.5 to 1.5 relative activity over Rd4BB (SEQ ID NO: 15))
Relative Activity of GLA Variants After Challenge at pH 9.65 [3]: + (0.5 to 1.5 relative activity over Rd4BB (SEQ ID NO: 15))

B6: 385 (protein)
chain: B1 chain with M44R, Y92A
modifications: Synthetic Polypeptide sequence of Variant No. 385 of mature Human GLA
Relative Activity of GLA Variants After Challenge at pH 3.7 [1]: + (0.5 to 1.5 relative activity over Rd4BB (SEQ ID NO: 15))
Relative Activity of GLA Variants After No Challenge (NC) [2]: + (0.5 to 1.5 relative activity over Rd4BB (SEQ ID NO: 15))
Relative Activity of GLA Variants After Challenge at pH 9.65 [3]: − (<0.5 relative activity over Rd4BB (SEQ ID NO: 15))

B7: 360 (protein)
chain: B1 chain with M44E, K206A
modifications: Synthetic Polypeptide sequence of Variant No. 360 of mature Human GLA
Relative Activity of GLA Variants After Challenge at pH 3.7 [1]: + (0.5 to 1.5 relative activity over Rd4BB (SEQ ID NO: 15))
Relative Activity of GLA Variants After No Challenge (NC) [2]: + (0.5 to 1.5 relative activity over Rd4BB (SEQ ID NO: 15))
Relative Activity of GLA Variants After Challenge at pH 9.65 [3]: + (0.5 to 1.5 relative activity over Rd4BB (SEQ ID NO: 15))

B8: 375 (protein)
chain: B1 chain with M44R, S47I
modifications: Synthetic Polypeptide sequence of Variant No. 375 of mature Human GLA
Relative Activity of GLA Variants After Challenge at pH 3.7 [1]: + (0.5 to 1.5 relative activity over Rd4BB (SEQ ID NO: 15))
Relative Activity of GLA Variants After No Challenge (NC) [2]: + (0.5 to 1.5 relative activity over Rd4BB (SEQ ID NO: 15))
Relative Activity of GLA Variants After Challenge at pH 9.65 [3]: + (0.5 to 1.5 relative activity over Rd4BB (SEQ ID NO: 15))

B9: 384 (protein)
chain: B1 chain with M44R, Y92V
modifications: Synthetic Polypeptide sequence of Variant No. 384 of mature Human GLA
Relative Activity of GLA Variants After Challenge at pH 3.7 [1]: + (0.5 to 1.5 relative activity over Rd4BB (SEQ ID NO: 15))
Relative Activity of GLA Variants After No Challenge (NC) [2]: + (0.5 to 1.5 relative activity over Rd4BB (SEQ ID NO: 15))
Relative Activity of GLA Variants After Challenge at pH 9.65 [3]: − (<0.5 relative activity over Rd4BB (SEQ ID NO: 15))

B10: 377 (protein)
chain: B1 chain with M39T, M44R
modifications: Synthetic Polypeptide sequence of Variant No. 377 of mature Human GLA
Relative Activity of GLA Variants After Challenge at pH 3.7 [1]: ++ (>1.5 to 2.5 relative activity over Rd4BB (SEQ ID NO: 15))
Relative Activity of GLA Variants After No Challenge (NC) [2]: + (0.5 to 1.5 relative activity over Rd4BB (SEQ ID NO: 15))
Relative Activity of GLA Variants After Challenge at pH 9.65 [3]: − (<0.5 relative activity over Rd4BB (SEQ ID NO: 15))

B11: 387 (protein)
chain: B1 chain with M44R, V93T
modifications: Synthetic Polypeptide sequence of Variant No. 387 of mature Human GLA
Relative Activity of GLA Variants After Challenge at pH 3.7 [1]: + (0.5 to 1.5 relative activity over Rd4BB (SEQ ID NO: 15))
Relative Activity of GLA Variants After No Challenge (NC) [2]: + (0.5 to 1.5 relative activity over Rd4BB (SEQ ID NO: 15))
Relative Activity of GLA Variants After Challenge at pH 9.65 [3]: − (<0.5 relative activity over Rd4BB (SEQ ID NO: 15))

B12: 376 (protein)
chain: B1 chain with M41P, M44R
modifications: Synthetic Polypeptide sequence of Variant No. 376 of mature Human GLA
Relative Activity of GLA Variants After Challenge at pH 3.7 [1]: − (<0.5 relative activity over Rd4BB (SEQ ID NO: 15))
Relative Activity of GLA Variants After No Challenge (NC) [2]: − (<0.5 relative activity over Rd4BB (SEQ ID NO: 15))
Relative Activity of GLA Variants After Challenge at pH 9.65 [3]: − (<0.5 relative activity over Rd4BB (SEQ ID NO: 15))

B13: 381 (protein)
chain: B1 chain with M44R, Y92S
modifications: Synthetic Polypeptide sequence of Variant No. 381 of mature Human GLA
Relative Activity of GLA Variants After Challenge at pH 3.7 [1]: + (0.5 to 1.5 relative activity over Rd4BB (SEQ ID NO: 15))
Relative Activity of GLA Variants After No Challenge (NC) [2]: + (0.5 to 1.5 relative activity over Rd4BB (SEQ ID NO: 15))
Relative Activity of GLA Variants After Challenge at pH 9.65 [3]: − (<0.5 relative activity over Rd4BB (SEQ ID NO: 15))

B14: 379 (protein)
chain: B1 chain with M44R, S47T
modifications: Synthetic Polypeptide sequence of Variant No. 379 of mature Human GLA
Relative Activity of GLA Variants After Challenge at pH 3.7 [1]: ++ (>1.5 to 2.5 relative activity over Rd4BB (SEQ ID NO: 15))
Relative Activity of GLA Variants After No Challenge (NC) [2]: + (0.5 to 1.5 relative activity over Rd4BB (SEQ ID NO: 15))
Relative Activity of GLA Variants After Challenge at pH 9.65 [3]: + (0.5 to 1.5 relative activity over Rd4BB (SEQ ID NO: 15))

B15: 380 (protein)
chain: B1 chain with M44R, Y92K
modifications: Synthetic Polypeptide sequence of Variant No. 380 of mature Human GLA
Relative Activity of GLA Variants After Challenge at pH 3.7 [1]: + (0.5 to 1.5 relative activity over Rd4BB (SEQ ID NO: 15))
Relative Activity of GLA Variants After No Challenge (NC) [2]: + (0.5 to 1.5 relative activity over Rd4BB (SEQ ID NO: 15))
Relative Activity of GLA Variants After Challenge at pH 9.65 [3]: − (<0.5 relative activity over Rd4BB (SEQ ID NO: 15))
